Where two headings read alike, the source gives them in different places.
T1: IGSF11 ECD fused to murine-Fc (human; mouse, UniProt Q5DX21 23-241)
T1 construct: also called Fc-fusion IGSF11 ECD; full-length ECD of IGSF11; not shown: murine Fc
T1 sequence: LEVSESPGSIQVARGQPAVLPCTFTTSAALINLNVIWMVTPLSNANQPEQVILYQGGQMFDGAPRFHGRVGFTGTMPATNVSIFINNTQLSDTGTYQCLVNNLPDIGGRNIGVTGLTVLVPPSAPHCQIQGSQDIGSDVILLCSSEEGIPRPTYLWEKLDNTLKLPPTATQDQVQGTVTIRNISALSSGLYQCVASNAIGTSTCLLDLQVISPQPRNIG

T2: IgV domain of human IGSF11 fused to murine IgG2a Fc-region (human; mouse, UniProt Q5DX21 23-143)
T2 construct: also called IgV-like domain mFc fusion; not shown: murine IgG2a Fc-region
T2 sequence: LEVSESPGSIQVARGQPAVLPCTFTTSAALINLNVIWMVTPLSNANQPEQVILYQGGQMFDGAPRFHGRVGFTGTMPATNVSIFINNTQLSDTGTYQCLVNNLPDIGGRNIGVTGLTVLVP

T3: human IGSF11 (VSIG3) on cells (human, UniProt Q5DX21 23-431)
T3 sequence: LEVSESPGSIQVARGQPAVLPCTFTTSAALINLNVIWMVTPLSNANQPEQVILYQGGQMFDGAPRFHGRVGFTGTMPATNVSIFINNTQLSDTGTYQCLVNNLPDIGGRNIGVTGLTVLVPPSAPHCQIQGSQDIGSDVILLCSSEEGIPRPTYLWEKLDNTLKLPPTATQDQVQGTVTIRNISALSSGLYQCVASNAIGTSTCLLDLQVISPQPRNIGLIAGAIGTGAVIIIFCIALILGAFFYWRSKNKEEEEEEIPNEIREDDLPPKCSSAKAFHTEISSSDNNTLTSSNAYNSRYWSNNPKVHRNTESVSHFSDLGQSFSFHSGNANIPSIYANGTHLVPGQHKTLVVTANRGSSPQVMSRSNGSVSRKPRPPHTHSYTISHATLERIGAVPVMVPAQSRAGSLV

T4: IgC2 domain of human IGSF11 fused to murine IgG2a Fc-region (human; mouse, UniProt Q5DX21 137-241)
T4 construct: also called IgC2-like domain mFc fusion; not shown: murine IgG2a Fc-region
T4 sequence: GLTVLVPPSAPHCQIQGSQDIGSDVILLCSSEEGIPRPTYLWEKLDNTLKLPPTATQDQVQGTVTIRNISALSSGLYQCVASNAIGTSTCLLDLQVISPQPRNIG

T5: recombinant human IGSF11 (VSIG3) extracellular domain (ECD) (human, UniProt Q5DX21 23-241, biotinylated where captured on streptavidin)
T5 construct: also called biotinylated recombinant ECD-IGSF11; IGSF11 (ECD domain)
T5 sequence: T1 sequence

T6: His-tagged extracellular domain (ECD) of human IGSF11 (VSIG3) (human, UniProt Q5DX21 23-241)
T6 construct: partly bought (SinoBiological 13094-H08H); also called IGSF11-HIS; HIS-IGSF11; not shown: HIS6 tag
T6 sequence: T1 sequence

B1: C-025 (IgG1 format) (antibody, V domains shown)
VH: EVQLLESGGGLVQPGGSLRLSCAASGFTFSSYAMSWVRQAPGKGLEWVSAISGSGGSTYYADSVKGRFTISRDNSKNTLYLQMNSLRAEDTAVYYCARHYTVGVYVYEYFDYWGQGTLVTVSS
VL: SYELTQPPSVSVSPGQTASITCSGDKLGDKYASWYQQKPGQSPVLVIYQDSKRPSGIPERFSGSNSGNTATLTISGTQAEDEADYYCQSYATAGFVFGGGTKLTVL
notes: wildtype human IgG1 and kappa or lambda constant regions
B2: A-026 (IgG1 format) (antibody, V domains shown)
VH: QVQLQESGPGLVKPSQTLSLTCTVSGGSISSGGYYWSWIRQHPGKGLEWIGYIYYSGSTYYNPSLKSRVTISVDTSKNQFSLKLSSVTAADTAVYYCASWSLGTSNHGWFDPWGQGTLVTVSS
VL: QSVLTQPPSASGTPGQRVTISCSGSSSNIGSNTVNWYQQLPGTAPKLLISDNNNRPSGVPDRFSGSKSGTSASLAITGLQAEDEADYYCQSYDSNLSGWVFGGGTKLTVL
notes: human IgG1 format

Assays:
[1] = molecular target: T1, IGSF11 ECD fused to murine-Fc; test: ELISA, IgG
Text: (§1) Expi293 cells (ThermoFisher) were transiently transfected with DNA sequences encoding the applicable IGSF11 domain-mFc fusions according to the manufacturer's instructions, and cultured under conditions suitable to the IGSF11 domain fusion. Cell supernatants were harvested 5 days post transfection and the expressed Fc-protein purified via Protein A affinity chromatography (GE Healthcare). IGSF11 domain Fc-fusion proteins were re-buffered into PBS pH7.4. […] The surface was blocked with 2% (w/v) skim milk powder in PBST. After three wash cycles with PBST, a dilution series of IgG-format ABPs was transferred to the immobilized the Fc-fusion IGSF11 ECD or the IGSF11 domains and incubated for 1 h. After removing all unbound antibodies by 3 wash cycles with PBST, bound IgG ABPs were detected with a goat anti-human IgG antibody conjugated with horseradish peroxidase. After three wash cycles with PBST the ELISA was developed with TMB substrate.

[2] = molecular target: T2, IgV domain of human IGSF11 fused to …; test: ELISA, IgG
Text: as §1

[3] = molecular target: T3, human IGSF11 (VSIG3) on cells; test: FACS, IgG1-format antibodies; M579-A2-luc cells (M) treated with IGSF11 siRNA (KD)
[4] = molecular target: T4, IgC2 domain of human IGSF11 fused to …; test: ELISA, IgG
Text: as §1

[5] = molecular target: T1, IGSF11 ECD fused to murine-Fc; test: ELISA, IgG; remark: listed apart in the source
Text: as §1

[6] = molecular target: T5, recombinant human IGSF11 (VSIG3) …; test: BLI, IgG1
[7] = molecular target: T3, human IGSF11 (VSIG3) on cells; test: FACS, IgG1-format antibodies; CL-11 cells (C), a line that does not express IGSF11 (specificity control), scrambled control siRNA (SC)
[8] = molecular target: T3, human IGSF11 (VSIG3) on cells; test: FACS, IgG1-format antibodies; M579-A2-luc cells (M) treated with scrambled control siRNA (SC)
[9] = molecular target: T3, human IGSF11 (VSIG3) on cells; test: FACS, HEK cells expressing IGSF11
[10] = molecular target: T3, human IGSF11 (VSIG3) on cells; test: FACS, IgG1-format antibodies; DMS 273 cells (D) treated with IGSF11 siRNA (KD)
[11] = molecular target: T5, recombinant human IGSF11 (VSIG3) …; test: SPR, IgG1
[12] = molecular target: T3, human IGSF11 (VSIG3) on cells; test: FACS, IgG1-format antibodies; DMS 273 cells (D) treated with scrambled control siRNA (SC)
[13] = molecular target: T3, human IGSF11 (VSIG3) on cells; test: FACS, IgG1-format antibodies; CL-11 cells (C), a line that does not express IGSF11 (specificity control), IGSF11 siRNA (KD)
[14] = molecular target: T6, His-tagged extracellular domain (ECD) …; test: ELISA EC50 grade, IgG1

| EC50 [1] [nM] | EC50 [2] [nM] | percentage binding (FACS heat-map) [3] [%] | EC50 [4] [nM] | EC50 [5] [nM] | Kd [6] [nM] | percentage binding (FACS heat-map) [7] [%] | percentage binding (FACS heat-map) [8] [%] | EC50 [9] [nM] | percentage binding (FACS heat-map) [10] [%] | Kd [11] [nM] | percentage binding (FACS heat-map) [12] [%] | percentage binding (FACS heat-map) [13] [%] | EC50 [14] [nM] | Binder |
| --- | --- | --- | --- | --- | --- | --- | --- | --- | --- | --- | --- | --- | --- | --- |
| 1 to 20 | < 1 |  |  |  |  |  |  |  |  |  |  |  |  | B1 |
|  |  | 2.01 | 1 to 20 | 1 to 20 | 20 to 30 | 3.6 | 11.6 | > 50 | 3.81 | > 500 | 64.4 | 3.47 | 0.02 to 0.05 | B2 |

— patent US20240010720A1 (IOMX THERAPEUTICS, published 2024)
